Reference: article PMC6479836, “Interaction of Nerve Growth Factor β with Adiponectin and SPARC Oppositely Modulates its Biological Activity” (International Journal of Molecular Sciences, 2019)

What was measured:
[1] = molecular target: Secreted protein, acidic and rich in cysteine (SPARC) (UniProt P09486); assay: SPR; BIAcore X; SPARC immobilised on CM5 chip (3574 RU); growth factors as analytes in HBS-EP (10 mM HEPES, 150 mM NaCl, 0.005% Surfactant P20, pH 7.4), 37 °C, 20 µL/min, 105 s association, 120 s dissociation
Chain of Secreted protein, acidic and rich in cysteine (SPARC) (P09486 18-303): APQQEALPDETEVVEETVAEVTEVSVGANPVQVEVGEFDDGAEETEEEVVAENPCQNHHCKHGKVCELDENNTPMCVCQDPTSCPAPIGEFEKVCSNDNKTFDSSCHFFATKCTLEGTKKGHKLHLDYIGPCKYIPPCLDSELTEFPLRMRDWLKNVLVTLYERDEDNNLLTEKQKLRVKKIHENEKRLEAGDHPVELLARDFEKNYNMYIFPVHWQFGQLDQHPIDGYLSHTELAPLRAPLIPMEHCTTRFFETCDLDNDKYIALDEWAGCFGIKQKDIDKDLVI

[2] = molecular target: Recombinant murine globular adiponectin (murine); assay: SPR; BIAcore X; globular adiponectin immobilised on CM5 chip (12707 RU); growth factors as analytes in HBS-EP pH 7.4, 37 °C, 20 µL/min, 105 s association, 120 s dissociation
[3] = molecular target: T1, Recombinant murine full-length adiponectin (murine, UniProt Q60994 18-247); assay: SPR; BIAcore X; full length adiponectin immobilised on CM5 chip (2025 RU); growth factors as analytes in HBS-EP pH 7.4, 37 °C, 20 µL/min, 105 s association, 120 s dissociation; conditions: both partners purified
T1 construct: also called fADPN; source: bought: Biovender Laboratory Medicine, Inc
T1 sequence (looked up): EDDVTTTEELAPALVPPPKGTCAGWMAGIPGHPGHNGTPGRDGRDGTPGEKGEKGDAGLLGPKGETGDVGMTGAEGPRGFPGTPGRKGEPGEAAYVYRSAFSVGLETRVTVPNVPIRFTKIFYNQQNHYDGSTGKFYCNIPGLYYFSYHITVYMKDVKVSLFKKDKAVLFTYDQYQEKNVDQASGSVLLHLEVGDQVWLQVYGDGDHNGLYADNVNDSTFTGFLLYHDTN

What does the source list for “Recombinant human vascular endothelial growth factor VEGF-165 (ligand)”?
Kd [1]: 54.4 nM; koff [1]: 0.00413 s⁻¹; kon [1]: 75800 M⁻¹ s⁻¹

For “Recombinant human basic fibroblast growth factor (FGF2) (from UniProt P09038 143-288) (ligand)”, which Kd [1] is on record?
Its Kd is 14400 nM.

What about the koff [1] of the same molecule?
The koff was 0.00195 s⁻¹.

And the kon [1]?
Its kon is 135 M⁻¹ s⁻¹.

With “Recombinant human transforming growth factor β1 (TGFβ1) (from UniProt P01137 279-390) (ligand)” as the molecule, how does the Kd [1] read?
Its Kd is 24300 nM.

And the koff [1]?
The koff was 0.0192 s⁻¹.

And the kon [1]?
The kon was 790 M⁻¹ s⁻¹.

B1: Nerve growth factor β (NGFβ) from mouse submaxillary glands (ligand, UniProt P01139 122-241, looked up)
chain: SSTHPVFHMGEFSVCDSVSVWVGDKTTATDIKGKEVTVLAEVNINNSVFRQYFFETKCRASNPVESGCRGIDSKHWNSYCTTTHTFVKALTTDEKQAAWRFIRIDTACVCVLSRKATRRG
notes: beta-nerve growth factor, mouse, the beta chain from submaxillary glands; The same protein was also tested after boiling (denatured), as a control; source: from mouse submaxillary glands; bought: Alomone Labs
For B1, which Kd [2] is on record?
The Kd was 1260 nM.

And the koff [2]?
The koff was 0.0145 s⁻¹.

And the kon [2]?
The kon was 11500 M⁻¹ s⁻¹.

And the Kd [3]?
Its Kd is 103 nM.

What about the koff [3] of the same molecule?
Its koff is 0.00597 s⁻¹.

And the kon [3]?
Its kon is 57600 M⁻¹ s⁻¹.

What about the Kd [1] of the same molecule?
Its Kd is 59.4 nM.

And the koff [1]?
The koff was 0.011 s⁻¹.

And the kon [1]?
The kon was 186000 M⁻¹ s⁻¹.

B2: Recombinant human platelet-derived growth factor-BB (PDGF-BB) (ligand, UniProt P01127 82-190, looked up)
chain: SLGSLTIAEPAMIAECKTRTEVFEISRRLIDRTNANFLVWPPCVEVQRCSGCCNNRNVQCRPTQVQLRPVQVRKIEIVRKKPIFKKATVTLEDHLACKCETVAAARPVT
notes: PDGF B chain, human, recombinant; The two copies follow from the printed name BB; source: bought: Wako Pure Chemical
With B2 as the molecule, how does the Kd [2] read?
Its Kd is 70.4 nM.

And the koff [2]?
Its koff is 0.00738 s⁻¹.

And the kon [2]?
The kon was 105000 M⁻¹ s⁻¹.

And the Kd [3]?
Its Kd is 24.5 nM.

What about the koff [3] of the same molecule?
The koff was 2.82e-05 s⁻¹.

What about the kon [3] of the same molecule?
Its kon is 1150 M⁻¹ s⁻¹.

What about the Kd [1] of the same molecule?
Its Kd is 24.3 nM.

What about the koff [1] of the same molecule?
Its koff is 0.000903 s⁻¹.

And the kon [1]?
The kon was 37100 M⁻¹ s⁻¹.
